According to PMC3260166, “HspB2/Myotonic Dystrophy Protein Kinase Binding Protein (MKBP) as a Novel Molecular Chaperone: Structural and Functional Aspects” (PLoS ONE, 2012):

B1: human HspB2 / Myotonic Dystrophy Protein Kinase Binding Protein (MKBP) (natural protein, UniProt Q16082 1-182, looked up)
chain: MSGRSVPHAHPATAEYEFANPSRLGEQRFGEGLLPEEILTPTLYHGYYVRPRAAPAGEGSRAGASELRLSEGKFQAFLDVSHFTPDEVTVRTVDNLLEVSARHPQRLDRHGFVSREFCRTYVLPADVDPWRVRAALSHDGILNLEAPRGGRHLDTEVNEVYISLLPAPPDPEEEEEAAIVEP
notes: HspB2 (MKBP), human; The reverse primer carries the stop codon (TCA), so the C-terminal His tag of pET21a is probably not translated; also called MKBP/HspB2; source: E. coli BL21 DE3, purified (20% ammonium sulfate precipitation, Phenyl Sepharose)
B2: human HspB2 labelled at its sole cysteine (Cys118) with AIAS or LYI (natural protein, UniProt Q16082 1-182, looked up)
chain: B1 chain
modifications: cysteine at 118 covalently labelled with AIAS (4-acetamido-4'-((iodoacetyl)amino)stilbene-2,2'-disulfonic acid; donor copy) or with Lucifer Yellow Iodoacetamide (LYI; acceptor copy)
notes: HspB2 (MKBP), human; the same recombinant protein as m1, labelled at the sole cysteine residue (118th position); Two differently labelled copies of the same protein (AIAS donor, LYI acceptor) mixed in equimolar ratio for FRET; also called AIAS-labeled HspB2; LYI-labeled HspB2; source: E. coli BL21 DE3, purified, then labelled with AIAS or LYI and desalted (PD10)

Tests used:
[1] = molecular target: the molecule itself; assay: AUC; sedimentation velocity, 0.125, 1 and 3 mg/ml HspB2 in TNE buffer (50 mM Tris HCl pH 7.4, 1 mM EDTA, 100 mM NaCl), 40,000 rpm, 20°C, interference optics, SEDFIT
[2] = molecular target: the molecule itself; assay: FRET or BRET; subunit exchange: AIAS- and LYI-labelled HspB2 mixed in equimolar ratios in 20 mM HEPES pH 7.4, 100 mM NaCl, at 37°C or 20°C; excitation 332 nm

| Protein | binding result [1] | binding result [2] |
| --- | --- | --- |
| B1 | binds | – |
| B2 | – | binds |
